Results as given in the supplement of paper PMC7125110.
± gives the standard error. Fewer inactive variants are shown than the library holds.

B1: glmS ribozyme (parent)
chain: AUAAAAGCGCCAGAACUACAGAAAUGUAGUUGACGAGGAGGAGGUUUAUCGAAUUUUCGGCGGAUGCCUCCAAA

Key:
Conditions in all cases: with glucosamine-6-phosphate
glucosamine-6-phosphate [1] = variants of: B1; assay: self-cleavage kobs at 40 uM GlcN6P; higher = faster cleavage; RNA array
Summary of the method: (§1)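 E. coli RNA polymerase transcribed barcoded ribozyme variants in situ on sequenced MiSeq chips, which were tracked via a hybridised Cy3 probe at 37 °C. Tiles were imaged over ~14 h after glucosamine-6-phosphate (40 μM to 10 mM) in HEPES/KCl/Mg(OAc)2 buffer was flowed in. Normalised per-tile medians were fit to one- or two-exponential decays for kobs, and kcat and KM came from weighted Michaelis–Menten fits.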

glucosamine-6-phosphate [2] = variants of: B1; assay: self-cleavage kobs at 160 uM GlcN6P; higher = faster cleavage; RNA array
Summary of the method: as §1

glucosamine-6-phosphate [3] = variants of: B1; assay: self-cleavage kobs at 640 uM GlcN6P; higher = faster cleavage; RNA array
Summary of the method: as §1

glucosamine-6-phosphate [4] = variants of: B1; assay: self-cleavage kobs at 2500 uM GlcN6P; higher = faster cleavage; RNA array
Summary of the method: as §1

glucosamine-6-phosphate [5] = variants of: B1; assay: self-cleavage kobs at 10000 uM GlcN6P; higher = faster cleavage; RNA array
Summary of the method: as §1

Variant | self-cleavage kobs at 40 uM GlcN6P (glucosamine-6-phosphate [1]) | self-cleavage kobs at 160 uM GlcN6P (glucosamine-6-phosphate [2]) | self-cleavage kobs at 640 uM GlcN6P (glucosamine-6-phosphate [3]) | self-cleavage kobs at 2500 uM GlcN6P (glucosamine-6-phosphate [4]) | self-cleavage kobs at 10000 uM GlcN6P (glucosamine-6-phosphate [5])
U49G G51A | < 1e-05 s⁻¹ | < 1e-05 s⁻¹ | < 1e-05 s⁻¹ | < 1e-05 s⁻¹ | < 1e-05 s⁻¹
U54G C68U | 0.000327 ± 2.5e-05 s⁻¹ | 0.000869 ± 0.00021 s⁻¹ | 0.000824 ± 0.00012 s⁻¹ | 0.0036 ± 0.00084 s⁻¹ | 0.00395 ± 0.00053 s⁻¹
U55A U57C U69C C70U | < 1e-05 s⁻¹ |  |  |  | 
U56C C61U C70A C71U | < 1e-05 s⁻¹ |  |  | < 1e-05 s⁻¹ | 
U54G G63C | < 1e-05 s⁻¹ |  | < 1e-05 s⁻¹ | < 1e-05 s⁻¹ | < 1e-05 s⁻¹
U55A C61G | < 1e-05 s⁻¹ |  |  |  | < 1e-05 s⁻¹
C50G G62A C70U | 9.58e-05 ± 2.3e-05 s⁻¹ |  | 0.000184 ± 4.7e-05 s⁻¹ | 0.000549 ± 0.00012 s⁻¹ | 0.000104 ± 1.6e-05 s⁻¹
G51C C70A | < 1e-05 s⁻¹ |  | < 1e-05 s⁻¹ |  | 
U54A G60C | < 1e-05 s⁻¹ |  | < 1e-05 s⁻¹ |  | < 1e-05 s⁻¹
C50G A53U G66A C67A | 0.000122 ± 4.6e-05 s⁻¹ |  |  |  | 0.000135 ± 5.1e-05 s⁻¹
C58A G63U | < 1e-05 s⁻¹ | < 1e-05 s⁻¹ | < 1e-05 s⁻¹ | < 1e-05 s⁻¹ | 
A53G G62A | < 1e-05 s⁻¹ |  | < 1e-05 s⁻¹ |  | < 1e-05 s⁻¹
U56A C71U | 0.000282 ± 3.8e-05 s⁻¹ | 0.000738 ± 0.00012 s⁻¹ | 0.00243 ± 0.00036 s⁻¹ | 0.0201 ± 0.0072 s⁻¹ | 0.018 ± 0.0044 s⁻¹
G51C A53U U57C G59U | < 1e-05 s⁻¹ |  |  |  | 
C50G C58G | 8.56e-05 ± 1.3e-05 s⁻¹ | 0.000155 ± 2.6e-05 s⁻¹ | 0.000235 ± 5.2e-05 s⁻¹ | 6.82e-05 ± 1.8e-05 s⁻¹ | 
C50G C58U | 0.000198 ± 9.7e-05 s⁻¹ | 9.14e-05 ± 2.2e-05 s⁻¹ |  | 0.000443 ± 0.00019 s⁻¹ | 
C50G C58A | 5.49e-05 ± 1.6e-05 s⁻¹ | 0.000151 ± 4.4e-05 s⁻¹ | 0.000175 ± 4.4e-05 s⁻¹ | 0.000194 ± 3.7e-05 s⁻¹ | 3.98e-05 ± 1.7e-05 s⁻¹
G60A C61G | < 1e-05 s⁻¹ |  |  | < 1e-05 s⁻¹ | < 1e-05 s⁻¹
C58U U65G | < 1e-05 s⁻¹ | < 1e-05 s⁻¹ | < 1e-05 s⁻¹ |  | 
U54C G63U A64C | < 1e-05 s⁻¹ |  |  |  | < 1e-05 s⁻¹
U54C U55C U65A | 3.24e-05 ± 1.6e-05 s⁻¹ |  |  |  | 
A53G U57C G63U | < 1e-05 s⁻¹ |  |  |  | < 1e-05 s⁻¹
